This assay addresses T1, Loop L1 of MmpL4 (residues 58-199) (Mycobacterium tuberculosis, UniProt P9WJV3 58-199).
T1 construct: MmpL4 of Mycobacterium tuberculosis, predicted loop L1 between TM1 and TM2, residues 58-199; also called L1 loop of MmpL4; periplasmic loop of MmpL4
T1 sequence: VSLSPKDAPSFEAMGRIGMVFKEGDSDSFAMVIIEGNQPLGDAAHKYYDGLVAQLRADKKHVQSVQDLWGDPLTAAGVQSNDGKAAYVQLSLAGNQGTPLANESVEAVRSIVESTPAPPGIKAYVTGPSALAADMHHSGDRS
The experiment in a line: pull-down. As to conditions: both partners purified.

These results are taken from article PMC3561183, “Discovery of a Siderophore Export System Essential for Virulence of Mycobacterium tuberculosis” (PLoS Pathogens, 2013).

B1: C-terminal soluble domain of MmpS4 (residues 52-140) (domain or fragment)
chain: HLTYEIFGPPGTVADISYFDVNSEPQRVDGAVLPWSLHITTNDAAVMGNIVAQGNSDSIGCRITVDGKVRAERVSNEVNAYTYCLVKSA
notes: MmpS4 (rv0451c) of Mycobacterium tuberculosis, residues 52-140: N-terminally truncated, lacks the predicted transmembrane helix; also called MmpS4_(52-140); water-soluble domain of MmpS4
As to B1, the binding result is on record as “binds”.
